doi:10.1101/099705
Where “and” joins values, the source holds several entries; their conditions need not be identical. Identical values can stand only once. Like-named read-outs stand apart in the source and are kept apart here. Each block holds one molecule with its values, some of them ahead of it.

Experiments:
[1] = target: TbMP18-FL (T. brucei (strain Lister 427)); test: SEC
[2] = target: TbMP24-OB (T. brucei (strain Lister 427)); test: SEC
[3] = target: TbMP18-FL (T. brucei (strain Lister 427))
[4] = target: TbMP42-FL (T. brucei (strain Lister 427)); test: SEC
[5] = target: TbMP42-OB (T. brucei (strain Lister 427)); test: SEC
[6] = target: TbMP81-FL (T. brucei (strain Lister 427)); test: SEC
[7] = target: TbMP81-OB (T. brucei (strain Lister 427)); test: SEC
[8] = target: TbMP18-FL (T. brucei (strain Lister 427)); test: SEC; remark: listed apart in the source

Molecule: TbMP24-OB (domain or fragment)
- stoichiometry N (TbMP24-OB:TbMP18-FL (molar ratio)) [1]: 2
- stoichiometry N [2]: 3

Molecule: TbMP24-FL (natural protein)
- stoichiometry N (TbMP24-FL:TbMP18-FL (molar ratio)) [1]: 2 and 1.5
- stoichiometry N (TbMP24-FL:TbMP18-FL (molar ratio)) [3]: 1.1

Molecule: TbMP18-FL (natural protein)
- stoichiometry N [1]: 4

Molecule: TbMP81-FL (natural protein)
- stoichiometry N [6]: 2

B1: TbMP63-OB (domain or fragment)
chain: SAIGASWAETELIPHAQCVSNITIVGRVLDVSQASENVSHVTVFVEGERSGEEETLTLCCFGEVSQKIRGTLKRNATIFASGTLRLHPVYEASNNKYYVSPVVHVSMPTGTLAVIT
- stoichiometry N (TbMP63-OB:TbMP18-FL (molar ratio)) [8]: 1 and 1.5
- stoichiometry N (TbMP63-OB:TbMP18-FL (molar ratio)) [3]: 0.67

Continued, values first:

- stoichiometry N [4]: 3
Molecule: TbMP42-FL (natural protein)

- stoichiometry N [5]: 3
Molecule: TbMP42-OB (domain or fragment)

- stoichiometry N [7]: 2
Molecule: TbMP81-OB (domain or fragment)
